Results as given in the DeepSol protein solubility set.

Assay: soluble on expression in E. coli; label from the status in PepcDB or PDB records

Sequence	soluble on expression in E. coli
MDYLPLFADLKQRPVLIVGGGEVAARKIELLHRAGAQVWVVAQTLSSELEQQYQDGRIHWLAQDFLPEQLDNVFLVIAATNDTVLNAAVFAAADQRCILANVVDDQPLCSFIFPSIVDRSPLVVAISSSGQAPVLARILREKLEALLPTRLSDMAAIAGRWRGRVKQHMASMGERRRFWEHAFSGRFASLISRGQLTEAENELQLSLEGQHRALGEVALVGAGPGDAGLLTLRGLQVMQQADVVLYDHLVSPEVLDLVRRDAERICVGKRAGAHSVTQEATNQLLVTLAQQGKRVVRLKGGDPFIFGRGGEELQVVAQAGIPFQVVPGVTAAAGATAYAGIPLTHRDHAQSVTFITGHCRPDGDDLDWQTLARGRQTLAIYMGTVKAAAISQQLIAHGRSSTTPVAVIGRGTRVDQQVLIGTLAQLESLAQQAPTPALLVIGEVVNLHHQIAWFGQQPQTESAISPSVVNLA	not soluble
MNRFILSAFLLVAIFAISDAAVAQQQVKDGEKVEIDAFKGAKAIKRTVAGGDQIFHLDGDNKGSFVDAKGKKIESTNYEANNGILIIKKFTKADVGTYSEHPAKNTETKHADGSISAVPGLTLDISLQ	soluble
MSLNPPYTIVFALYPGVTQLDFTGPLEFLSKLPHARCVLASSRGEDIRADGGIVFADIARLGAIERCDLLLVPGGLGTIEAMEDAELLAQLRRLAASADYVSSVCTGSLLLGAAGLLKGRRAACHWAWLDSLAAFGAQPCPDRVVVDGKLISGGGVTAGIDMALTLMAEIAGPQFAQTAQLTLEYAEGHHHHHH	not soluble
MGNLFCCVLVKQSDVAVKERFGKFQKVLNPGLQFVPWVIGDYVAGTLTLRLQQLDVQCETKTKDNVFVTVVASIQYRVLADKASDAFYRLSNPTTQIKAYVFDVIRACVPKLNLDDVFEQKNEIAKSVEEELDKAMTAYGYEILQTLIIDIEPDQQVKRAMNEINAAARMRVAASEKAEAEKIIQIKRAEGEAESKYLSGLGIARQRQAIVDGLRDSVLGFAGNVPGTSAKDVLDMVMMTQYFDTMRDIGATSKSSAVFIPHGPGAVSDVAAQIRNGLLQANNAS	soluble
MTPLSALTSNPAPSPPPKFALGKCPATAIHVVSVLRPNRQRFCYEKTDAGDLIPHKCLICQPILTEKHISPYYAVYSDLLEDFVLFGYNTMTGKMEQFIYAFKTDCFVEVNRPEIKYNPAFLVKGNVVVALNGPEGELVVIERDCRGLLSKESTSYGQFRTLPTAALRTLTLQDLERDRWDRAANSDEVKISSGNESFDRLYAEYQKNLPRFQVRQCLHLNKEFLCVYSKTSGDYTRLEYIDETGDFQKISCTLCTCEVTESNLIPLYVERNASELVIHVHNTENNQIEQYIYDVRTFGFVQVKRNLVYDPKKITSGLNLFMAENIDNRKVYMIMRGRDGRLQKETSGSGGFEKMQPVAVKTFQVQWVEMKTEFEKKKASTERVEPQHPVQTEGEDIMETVLAMVESFNCDLRKELGLTQDQEIPRKAPRVESAETEENIVKNLEKLQIAKDPEEPTTAASEGGNTYGYQELDDTMSEGLLEKEAESKHQDANEPEPVKNVTYEPDVAAMDKKKKRRELKSRLNKINAQIDELEKRRMERAGKKQVVSSSVPSEEAAQVEAPASPALAENTNQISNEETPKIDIFEGYNGSFLFGTNTSKEWIVEDIRNHMVGKLLKAFWPRIQNVEEMNGELFKKLIANARKCETEILEASNDRDEYYRLMQLTVDQILKKTLKKDQRATEHNHQQPTQSSDELAKNHEKN	not soluble
MAKNIPFKLILEKAKDYQADMTRFLRDMVAIPSESCDEKRVVHRIKEEMEKVGFDKVEIDPMGNVLGYIGHGPRLVAMDAHIDTVGIGNIKNWDFDPYEGMETDELIGGRGTSDQEGGMASMVYAGKIIKDLGLEDEYTLLVTGTVQEEDCDGLCWQYIIEQSGIRPEFVVSTEPTDCQVYRGQRGRMEIRIDVQGVSCHGSAPERGDNAIFKMGPILGELQELSQRLGYDEFLGKGTLTVSEIFFTSPSRCAVADSCAVSIDRRLTWGETWEGALDEIRALPAVQKANAVVSMYNYDRPSWTGLVYPTECYFPTWKVEEDHFTVKALVNAYEGLFGKAPVVDKWTFSTNGVSIMGRHGIPVIGFGPGKEPEAHAPNEKTWKSHLVTCAAMYAAIPLSWLATE	soluble
SLPWTVRTETCRMPFRIDPKKPFGDEIRRAGLELIDDAVTILRDQPSGSHEAVHDARKRFKRLRALYRLIRKVAPDFAREENTRFRDIARSLAFARDATALVETAEYLEAFAASDTQGEALRSVTVMLRERRDDALDHEAGLDEAIAAAIAGCEKGRERLEDLSLPDDLNKTARLVRTGWAKQRVKARKALSCCREQADVEHFHELRKAGQTYWMHLGLMRRLWPSAMRAKRADTKRLVDILGHEHDLSVLTAVADREPDRFGNGERLALLLAAIIERQQALRAEGLVLADEVFSESARTESRIVGLLWRQAAK	not soluble
MSKIDFHTHYLPTSYVEALKRHVPGDPDGWPTPEWTPQLTLNFMRDNDISYSILSLSSPHVNFGDKAETIRLVEAANDDGKSLAQQYPDQLGYLASLPIPYELDAVKTVQQALDQDGALGVTVPTNSRGLYFGSPVLERVYQELDARQAIVALHPNEPAILPKNVDIDLPVPLLGFFMDTTMTFINMLKYHFFEKYPNIKVIIPHAGAFLGIVDDEIAQYAQKVYQVDVYDVMHHVYFDVAGAVLPRQLPTLMSLAQPEHLLYGSDIPYTPLDGSRQLGHALATTDLLTNEQKQAIFYDNAHRLLTELEHHHHHH	not soluble
MAHHHHHHMNFIKAEEKDKCAEEQGVKLFYLKSCKEKEYELHMDVCQAIVEDCPLLEVYVVSRGDGSSESGAFELYDNGQLIKKFTNCNVSTVTSFIRKYAQKGGSSPMEATQSGELNSTGKTDTVKKIEHLIGSNKIILFMKGSKTFPQCKFSNAVVFMLNSCKVKYTTYDILQDEDVRSELKIYSNWPTYPQLYINAELIGGHDIIKSMYDSGELRDVVPQDCFEG	soluble
MGSDKIHHHHHHMATSIETSFPDAPSTTPVLEMQGITKRFHGVSALQNVNLTIYPGEVHALMGENGAGKSTLMKILAGAYIADEGEIRINGQPLKITDPATARKAGINLIYQELNVAPNLTVTENMFMGSELRRGQFLDRKAMQLEAEQVLDSLGANFTAQTIVGTLSIAEQQQVEIARALKDKSRVLVMDEPTAALSDRESDHLFEVIRKLRSDGIAIIYISHRMEEIYALADRISVLRDGQYIGSLTRSEISPQRLVQMMVGRSMQDFYEHQRQMNPGPVVLEVRNMSDARKKIEPASFELHAGEILGLAGLVGAGRTELSRLIFGADRKASGEVFLNGKKLEINTPSDAIAAGIGYVPEDRKDQGLFLEMSARKNIAINTLKQDAKGGIVNWPSVNRLSTEAVENFNIRLANLEIRALDLSGGNQQKLLLARWLAIKPRVLMLDEPTRGVDIGAKSEIYRIMSELAAQGVAILMVSSELSEIVGMSDRVLVMREGQLVGELDGSLGKEITQEKIMHYATGASEVSAL	not soluble
MNRVQSGFRVPARVLNSLAHLQDGLNIFMDPDWRQIRHVDDWALAITMESAELIDSYPWKWWKNVKAQTDMHNVRIEIADILHFSLSGEIQKRTQDEKGADDVALKSLKEMGFFCRPPAHAKSTAASGQRTNGGDGDGDDELLELMFFPLTEVASAVATFRNIIQLASIYRFDLITKGLLLAAQDLDFNLVGYYVAKYTLNQIRQLKGYKEGVYVKVREGVEDNELLHECVQSVSVEDVLNEGTYLKAWEKIACSVFDAFGMPEEERRHAYDWLKSAALDGKG	soluble
SAAPSEVAAIAPGEGDGGGGGFGSWLDGRLEALGVDRAVYGAYILGILQEEEEEEKLDALQGILSAFLEEDSLLNICKEIVERWSETQNVVTKVKKEDEVQAIATLIEKQAQIVVKPRMVSEEEKQRKAALLAQYADVTDEEESLTEADEKDDSGATTMNIGSDKLLFRNTNVEDVLNARKLERDSLRDESQRKKEQDKLQRERDKLAKQERKEKEKKRTQRGERKR	soluble
AGGPGSRARAAGARGCRLRSQLVPVRALGLGHRSDELVRFRFCSGSCRRARSPHDLSLASLLGAGALRPPPGSRPVSQPCCRPTRYEAVSFMDVNSTWRTVDRLSATACGCLG	soluble
MRQCTPFDTLLVFYSTWPVLKNILTNKIMPAELESVRTRQIVALRTMINLNEPVVNSGVREPVWKVLVLDRTGQDIISPLLPVKQLRELGVTLHLLIGARREPLTDVPAVYFVSPNDENIDLMSEDLKKAMYDSFYCNFISPLARPRLESLASAAVHGGAVSQVQKVVDQYLNFISLEDDLFVLRRYSENSTFSYHAMNSPGTSDVAVNAMLDSIADGLFAVCATMGIVPIIRCPKGNAAEMVAKKLDQKLRDNLRDSRNNLFTMDGVRMGLLQTSRPLLVIGDRSADLATMLHHTWTYQALMHDVLELDQNRVTISTSSTGKKKDYDMATGGSDKLWNNHKGSAFPTVAEAVQENLDDYRSKEDDIKKIKQALGLSGESEAADEALTNVLADTTAKLGSTVMSLPDLLESKRLIDLHTNIATTLLDVIKERKLDVSLSSSKSCCNTHRLVDLFYQPVTQFLSNINHQEDVLRVLIIAFLCQETVNQNGYDQMMNLLRERGIEESALKHVQKLKSISQLGSRAANSAHTEEHQGAGTKTISMFGKLLSHSSKFVMEGVKNLVPKEHNLPLTKMIDSLNTPPSSTGISSAVGINQMIGGSSQGPDIDDIYCFFDPKLMHQPTKETILLARQQSAQDVILFVVGGGNYVEYQNLVDYGKRKNLMRVTYGCTELVNPAQFCDQVSCCSLSLPLTDLSGDSPYFFCSPLEF	not soluble
TGMSREEVESLIQEVLEVYPEKARKDRNKHLAVNDPAVTQSKKCIISNKKSQPGLMTIRGCAYAGSKGIVWGPIKDMIHISHGPVGCGQYSRAGRRNYYIGTTGVNAFVTMNFTSDFQEKDIVFGGDKKLAKLIDEVETLFPLNKGISVQSECPIGLIGDDIESVSKVKGAELSKTIVPVRCEGFRGVSQSLGHHIANDAVRDWVLGKRDEDTTFASTPYDVAIIGDYNIGGDAWSSRILLEEMGLRCVAQWSGDGSISEIELTPKVKLNLVHCYRSMNYISRHMEEKYGIPWMEYNFFGPTKTIESLRAIAAKFDESIQKKCEEVIAKYKPEWEAVVAKYRPRLEGKRVMLYIGGLRPRHVIGAYEDLGMEVVGTGYEFAHNDDYDRTMKEMGDSTLLYDDVTGYEFEEFVKRIKPDLIGSGIKEKFIFQKMGIPFREMHSWDYSGPYHGFDGFAIFARDMDMTLNNPCWKKLQAPWEASEGAEKVAASA	soluble
MSLRKGSMRITPLGGLGEIGRNMNVIEYNGHLLLIDCGVLFPEEEQPGVDLILPDFSYIKNRLDKVDALVLTHGHEDHIGGVPYLLKLRPDIPLIGSKLTLAFVDAKCKEHHQNPTKVEVAGREKLKVGPFDLEFVNVTHSIPDALAVYVKTPAGSLIDTGDIKLDQLPLDHRITDLVEFGKIGEKGVDLLMMDSTNAEVPGFVKPETSIGPALDQAFAQATRKIIVASFSSHVHRVQQVVDAAHKYGRKVVFVGRSMVRNMSIAADLGYLHIPEGTVVDLKQANDIQDDKLVFMCTGSQGEPMAALGRIADGNHRDIHINEFDTVILASSLIPGNEHGVYKVINKLVQLGAKVVNRDNAAVHVSGHCNEGELLYMYNIVKPKCAMPIHGENRHLVANGLIAVKTGVDPQNVVLAEDGDVVDLYHGRAAVVGSVPCGYVYVDGDSVGELTDDELEKRRILGTEGFVSAFVVVDTDNHEVVTGPKIYLNAVAEDESEFDKVRHQIVEQLNDQMMQGTRDTYKLQQTMRRTLGSWVARQLHRKPMIVPVVADIAQDVETVETKEGHHHHHH	soluble
MAHHHHHHMEESDEDDNIQVIVFGNSSEAKFDDFYREEDIKKEEIQDNINDAMVPNESNEQDKAQNEDVDLESKVQNATKENKVFMKYDYTHEKPWSNHGDKSMWFNYNFDEHTFKEWVQKHIDRKLEKQQNYQIENTDNYFFEDTFKGNMMNTSSVNNQSMQGIKSFPSKNMNPFNTSKLIEHNGSPNYTSNKMDKIKNNNNNNNNKNNSNSNNKNNSNNKNNSNSNNRSDINQTTTNTNNDLKQFQNLINFLKQNN	not soluble
